The target in test [1] is papain (UniProt P00784). Nature of the test: enzyme inhibition kinetics (Lineweaver-Burk).
The target of test [2] is T1, papain (Carica papaya, UniProt P00784).
T1 construct: commercial purified papain (Sigma-Aldrich)
T1 sequence (P00784 134-345): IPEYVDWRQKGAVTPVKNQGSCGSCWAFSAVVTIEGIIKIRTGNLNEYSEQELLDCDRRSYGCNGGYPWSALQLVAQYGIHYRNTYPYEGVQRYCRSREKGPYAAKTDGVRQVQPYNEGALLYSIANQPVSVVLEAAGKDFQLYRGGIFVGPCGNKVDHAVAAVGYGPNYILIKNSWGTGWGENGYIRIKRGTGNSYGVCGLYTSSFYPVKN
Nature of the test: chromogenic protease assay, Lineweaver-Burk. The test is classed as biochemical. The note with it: pH 6.8, 1 mM glutathione, 37 °C, 0.1-5 mM BAPNA.

Counter-ions that a name gives are not always drawn.

Usually Ki stands for a measure of affinity in units of concentration, obtained from inhibition or displacement. Low values mean tighter binding, high ones weaker binding.

In the test with papain [1], “C14-inhibiting protein-1 (Cip1), wild type (natural protein)” registered a Ki of 3.98 nM.

Consider `N=C(N)NCCC[C@H](NC(=O)c1ccccc1)C(=O)Nc1ccc([N+](=O)[O-])cc1` [BAPNA, Nα-Benzoyl-L-arginine 4-nitroanilide hydrochloride], for which the “chromogenic protease assay, Lineweaver-Burk” value on papain [2] is recorded as “classical protease inhibition assays on purified papain using the chromogenic substrate BAPNA”.

Values taken from PMC5014320, “Screen of Non-annotated Small Secreted Proteins of Pseudomonas syringae Reveals a Virulence Factor That Inhibits Tomato Immune Proteases” (PLoS Pathogens, 2016).
